Laboratory results taken from patent US20260242735A1 (UNIVERSIT T BASEL, published 2026).

How the values were obtained:
Test in all cases: flow cytometry, transfected cells
[1] = molecular target: human CD33 I47F (human, UniProt P20138 18-364)
[2] = molecular target: human CD33 F44V (human, UniProt P20138 18-364)
[3] = molecular target: human CD33 I47L (human, UniProt P20138 18-364)
[4] = molecular target: human CD33 Y49G (human, UniProt P20138 18-364)
[5] = molecular target: human CD33 I47N (human, UniProt P20138 18-364)
[6] = molecular target: human CD33 F44E (human, UniProt P20138 18-364)
[7] = molecular target: human CD33 I47P (human, UniProt P20138 18-364)
[8] = molecular target: human CD33 I47G (human, UniProt P20138 18-364)
[9] = molecular target: human CD33 K52D (human, UniProt P20138 18-364)
[10] = molecular target: human CD33 R122T (human, UniProt P20138 18-364)
[11] = molecular target: human CD33 I47Q (human, UniProt P20138 18-364)
[12] = molecular target: human CD33 R122E (human, UniProt P20138 18-364)
[13] = molecular target: human CD33 D51K (human, UniProt P20138 18-364)
[14] = molecular target: human CD33 Y49C (human, UniProt P20138 18-364)
[15] = molecular target: human CD33 I47W (human, UniProt P20138 18-364)
[16] = molecular target: human CD33 I47S (human, UniProt P20138 18-364)
[17] = molecular target: human CD33 R122F (human, UniProt P20138 18-364)
[18] = molecular target: human CD33 F44S (human, UniProt P20138 18-364)
[19] = molecular target: human CD33 F44L (human, UniProt P20138 18-364)
[20] = molecular target: human CD33 R122S (human, UniProt P20138 18-364)
[21] = molecular target: human CD33 F44T (human, UniProt P20138 18-364)
[22] = molecular target: human CD33 Y49D (human, UniProt P20138 18-364)
[23] = molecular target: human CD33 R122I (human, UniProt P20138 18-364)
[24] = molecular target: human CD33 F44Q (human, UniProt P20138 18-364)
[25] = molecular target: human CD33 F44P (human, UniProt P20138 18-364)
[26] = molecular target: human CD33 I47R (human, UniProt P20138 18-364)
[27] = molecular target: human CD33 F44H (human, UniProt P20138 18-364)
[28] = molecular target: human CD33 I47Y (human, UniProt P20138 18-364)
[29] = molecular target: human CD33 F44I (human, UniProt P20138 18-364)
[30] = molecular target: human CD33 I47T (human, UniProt P20138 18-364)
[31] = molecular target: human CD33 F44D (human, UniProt P20138 18-364)
[32] = molecular target: human CD33 I47E (human, UniProt P20138 18-364)
[33] = molecular target: human CD33 Y49P (human, UniProt P20138 18-364)

Measured: binding result

human CD33 I47E, sequence (P20138 18-364 I47E limits assumed): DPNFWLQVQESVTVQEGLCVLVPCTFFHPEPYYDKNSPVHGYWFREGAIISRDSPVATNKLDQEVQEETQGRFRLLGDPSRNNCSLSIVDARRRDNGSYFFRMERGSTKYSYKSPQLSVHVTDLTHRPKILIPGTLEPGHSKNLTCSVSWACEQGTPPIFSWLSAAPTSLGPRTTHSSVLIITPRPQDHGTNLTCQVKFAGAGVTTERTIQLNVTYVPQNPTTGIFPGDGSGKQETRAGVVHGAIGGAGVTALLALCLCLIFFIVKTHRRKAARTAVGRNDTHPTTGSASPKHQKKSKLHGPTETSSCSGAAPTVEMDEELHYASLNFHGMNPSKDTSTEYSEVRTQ
human CD33 R122F, sequence (P20138 18-364 R122F limits assumed): as the sequence (P20138 18-364 I47E limits assumed) above, with E30I, R105F counted along it
human CD33 R122S, sequence (P20138 18-364 R122S limits assumed): as the sequence (P20138 18-364 I47E limits assumed) above, with E30I, R105S counted along it
human CD33 R122I, sequence (P20138 18-364 R122I limits assumed): as the sequence (P20138 18-364 I47E limits assumed) above, with E30I, R105I counted along it
human CD33 F44L, sequence (P20138 18-364 F44L limits assumed): as the sequence (P20138 18-364 I47E limits assumed) above, with F27L, E30I counted along it
human CD33 I47S, sequence (P20138 18-364 I47S limits assumed): as the sequence (P20138 18-364 I47E limits assumed) above, with E30S counted along it
human CD33 I47W, sequence (P20138 18-364 I47W limits assumed): as the sequence (P20138 18-364 I47E limits assumed) above, with E30W counted along it
human CD33 F44V, sequence (P20138 18-364 F44V limits assumed): as the sequence (P20138 18-364 I47E limits assumed) above, with F27V, E30I counted along it
human CD33 I47G, sequence (P20138 18-364 I47G limits assumed): as the sequence (P20138 18-364 I47E limits assumed) above, with E30G counted along it
human CD33 Y49P, sequence (P20138 18-364 Y49P limits assumed): as the sequence (P20138 18-364 I47E limits assumed) above, with E30I, Y32P counted along it
human CD33 I47P, sequence (P20138 18-364 I47P limits assumed): as the sequence (P20138 18-364 I47E limits assumed) above, with E30P counted along it
human CD33 I47Y, sequence (P20138 18-364 I47Y limits assumed): as the sequence (P20138 18-364 I47E limits assumed) above, with E30Y counted along it
human CD33 Y49D, sequence (P20138 18-364 Y49D limits assumed): as the sequence (P20138 18-364 I47E limits assumed) above, with E30I, Y32D counted along it
human CD33 F44T, sequence (P20138 18-364 F44T limits assumed): as the sequence (P20138 18-364 I47E limits assumed) above, with F27T, E30I counted along it
human CD33 F44I, sequence (P20138 18-364 F44I limits assumed): as the sequence (P20138 18-364 I47E limits assumed) above, with F27I, E30I counted along it
human CD33 K52D, sequence (P20138 18-364 K52D limits assumed): as the sequence (P20138 18-364 I47E limits assumed) above, with E30I, K35D counted along it
human CD33 D51K, sequence (P20138 18-364 D51K limits assumed): as the sequence (P20138 18-364 I47E limits assumed) above, with E30I, D34K counted along it
human CD33 R122E, sequence (P20138 18-364 R122E limits assumed): as the sequence (P20138 18-364 I47E limits assumed) above, with E30I, R105E counted along it
human CD33 I47L, sequence (P20138 18-364 I47L limits assumed): as the sequence (P20138 18-364 I47E limits assumed) above, with E30L counted along it
human CD33 F44Q, sequence (P20138 18-364 F44Q limits assumed): as the sequence (P20138 18-364 I47E limits assumed) above, with F27Q, E30I counted along it
human CD33 I47T, sequence (P20138 18-364 I47T limits assumed): as the sequence (P20138 18-364 I47E limits assumed) above, with E30T counted along it
human CD33 F44S, sequence (P20138 18-364 F44S limits assumed): as the sequence (P20138 18-364 I47E limits assumed) above, with F27S, E30I counted along it
human CD33 F44P, sequence (P20138 18-364 F44P limits assumed): as the sequence (P20138 18-364 I47E limits assumed) above, with F27P, E30I counted along it
human CD33 I47N, sequence (P20138 18-364 I47N limits assumed): as the sequence (P20138 18-364 I47E limits assumed) above, with E30N counted along it
human CD33 F44D, sequence (P20138 18-364 F44D limits assumed): as the sequence (P20138 18-364 I47E limits assumed) above, with F27D, E30I counted along it
human CD33 Y49G, sequence (P20138 18-364 Y49G limits assumed): as the sequence (P20138 18-364 I47E limits assumed) above, with E30I, Y32G counted along it
human CD33 I47Q, sequence (P20138 18-364 I47Q limits assumed): as the sequence (P20138 18-364 I47E limits assumed) above, with E30Q counted along it
human CD33 I47F, sequence (P20138 18-364 I47F limits assumed): as the sequence (P20138 18-364 I47E limits assumed) above, with E30F counted along it
human CD33 I47R, sequence (P20138 18-364 I47R limits assumed): as the sequence (P20138 18-364 I47E limits assumed) above, with E30R counted along it
human CD33 F44H, sequence (P20138 18-364 F44H limits assumed): as the sequence (P20138 18-364 I47E limits assumed) above, with F27H, E30I counted along it
human CD33 F44E, sequence (P20138 18-364 F44E limits assumed): as the sequence (P20138 18-364 I47E limits assumed) above, with F27E, E30I counted along it
human CD33 R122T, sequence (P20138 18-364 R122T limits assumed): as the sequence (P20138 18-364 I47E limits assumed) above, with E30I, R105T counted along it
human CD33 Y49C, sequence (P20138 18-364 Y49C limits assumed): as the sequence (P20138 18-364 I47E limits assumed) above, with E30I, Y32C counted along it

B1: Refmab #2 (antibody, human IgG1, V domains shown)
VH: QVQLVQSGAEVKKPGSSVKVSCKASGGTFSDYAISWVRQAPGQGLEWMGRIIPILGVADYAQKFQGRVTITADKSTRTAYMELSSLRSEDTAVYYCARNWADAFDIWGQGTMVTVSS
VL: DIQLTQSPSSLSASVGDRVTITCRASQGISSVLAWYQQKPGKAPKLLIYDASSLESGVPSRFSGSGSGTDFTLTISSLQPEDFATYYCQQFDSSITFGQGTKLEIK
no binding (tested: below 20%): all assays above
